The test system of the data set is Escherichia coli TOP10. The experiment in a line: shrunken log2 fold change of peptide-encoding DNA abundance (4.5 h post-induction vs induction); higher = less antimicrobial activity (less host growth inhibition). The following applies: time post-induction: 4.5 h; library: site-saturation at positions 5, 18, 19, 20.
For the sequence RRIRHRPPRLPRPRPRPINGPRP, the “shrunken log2 fold change” value was -0.437.

As for RRIRVRPPRLPRPRPRPVLHPRP, the “shrunken log2 fold change” value was -0.243. The value for RRIRTRPPRLPRPRPRPKCKPRP was 0.0156; that for RRIRCRPPRLPRPRPRPPCYPRP was -0.265; that for RRIRHRPPRLPRPRPRPMHMPRP was -0.0761. RRIRSRPPRLPRPRPRPTQTPRP: the “shrunken log2 fold change” value stood at 1.09. For RRIRNRPPRLPRPRPRPHHQPRP the value was -1.12; for RRIRSRPPRLPRPRPRPLYKPRP, -0.486. For RRIRLRPPRLPRPRPRPNRCPRP the value was -0.231. The value for RRIRGRPPRLPRPRPRPGWMPRP was 0.315; that for RRIRPRPPRLPRPRPRPGPMPRP was 0.293; that for RRIRTRPPRLPRPRPRPPSKPRP was -0.326. In the case of RRIRMRPPRLPRPRPRPVQMPRP, the “shrunken log2 fold change” value stood at 0.247. The value for RRIRARPPRLPRPRPRPFNQPRP was -0.257; that for RRIRIRPPRLPRPRPRPPPRPRP was 0.929; that for RRIRCRPPRLPRPRPRPRVEPRP was 0.0473. Take RRIRPRPPRLPRPRPRPDRYPRP: the “shrunken log2 fold change” value is -0.0207. For RRIRARPPRLPRPRPRPYSFPRP, the “shrunken log2 fold change” value is -0.0794.

On to RRIRERPPRLPRPRPRPPDQPRP, for which the “shrunken log2 fold change” value came out at 0.155. With RRIRWRPPRLPRPRPRPEKDPRP, the “shrunken log2 fold change” value was -0.0712. Take RRIRLRPPRLPRPRPRPQEEPRP: the “shrunken log2 fold change” value was -0.0207. On to RRIRLRPPRLPRPRPRPRDVPRP, for which the “shrunken log2 fold change” value was determined as 0.176.

On to RRIRPRPPRLPRPRPRPVVRPRP, for which the “shrunken log2 fold change” value amounted to 0.116.

Consider RRIRNRPPRLPRPRPRPCLGPRP, for which the “shrunken log2 fold change” value is -0.219.

For RRIRYRPPRLPRPRPRPTEIPRP, the “shrunken log2 fold change” value was -0.41. As for RRIRQRPPRLPRPRPRPHVFPRP, the “shrunken log2 fold change” value is -0.000919.

Take RRIRKRPPRLPRPRPRPYDFPRP: the “shrunken log2 fold change” value stood at 0.176.

Turning to RRIRHRPPRLPRPRPRPHSRPRP, the “shrunken log2 fold change” value was determined as 0.0183. Regarding RRIRTRPPRLPRPRPRPYQYPRP, the “shrunken log2 fold change” value was -0.546. Consider RRIRRRPPRLPRPRPRPMPGPRP, for which the “shrunken log2 fold change” value came out at 0.243. For RRIRERPPRLPRPRPRPPEKPRP the value was -0.0038; for RRIRIRPPRLPRPRPRPLQKPRP, -0.0683; for RRIRKRPPRLPRPRPRPQHVPRP, -0.124. The value for RRIRLRPPRLPRPRPRPSTYPRP was -0.205. For the sequence RRIRTRPPRLPRPRPRPMRIPRP, the “shrunken log2 fold change” value is -0.0254. Regarding RRIRGRPPRLPRPRPRPGKIPRP, the “shrunken log2 fold change” value worked out at 1.93. For RRIRQRPPRLPRPRPRPFWQPRP the value was 0.213; for RRIRERPPRLPRPRPRPQCVPRP, -0.0437. With RRIRMRPPRLPRPRPRPYGVPRP, the “shrunken log2 fold change” value is -0.147. The value for RRIRNRPPRLPRPRPRPFFWPRP was 0.0463; that for RRIRPRPPRLPRPRPRPHQRPRP was -0.232. The value for RRIRKRPPRLPRPRPRPKCYPRP was -0.0561; that for RRIRWRPPRLPRPRPRPWYVPRP was -0.396. As for RRIRVRPPRLPRPRPRPEYKPRP, the “shrunken log2 fold change” value is -0.501. RRIRPRPPRLPRPRPRPYGSPRP: the “shrunken log2 fold change” value was -0.0157. Take RRIRHRPPRLPRPRPRPAHKPRP: the “shrunken log2 fold change” value is -0.0386. As to RRIRRRPPRLPRPRPRPHGPPRP, the “shrunken log2 fold change” value was found to be 0.267. For RRIRCRPPRLPRPRPRPCGYPRP the value was -0.144. Regarding RRIRVRPPRLPRPRPRPTFFPRP, the “shrunken log2 fold change” value turned out to be 0.0435. As to RRIRKRPPRLPRPRPRPYGAPRP, the “shrunken log2 fold change” value amounted to 0.00792. On to RRIRNRPPRLPRPRPRPSKVPRP, for which the “shrunken log2 fold change” value was 0.0123.

Turning to RRIRWRPPRLPRPRPRPFDYPRP, the “shrunken log2 fold change” value was -0.554. Consider RRIRFRPPRLPRPRPRPNFNPRP, for which the “shrunken log2 fold change” value was -0.554. For RRIRDRPPRLPRPRPRPWDIPRP the value was -0.0043; for RRIRQRPPRLPRPRPRPTEYPRP, -0.401. The value for RRIRTRPPRLPRPRPRPYIAPRP was -0.476; that for RRIRPRPPRLPRPRPRPHQKPRP was -0.0717; that for RRIRDRPPRLPRPRPRPVSFPRP was -0.191. For the sequence RRIRVRPPRLPRPRPRPHFQPRP, the “shrunken log2 fold change” value was -0.154. The value for RRIRRRPPRLPRPRPRPKFFPRP was -0.00723; that for RRIRPRPPRLPRPRPRPAVCPRP was 0.245. In the case of RRIRIRPPRLPRPRPRPQYTPRP, the “shrunken log2 fold change” value is -1.18.

Consider RRIRSRPPRLPRPRPRPCIGPRP, for which the “shrunken log2 fold change” value is -0.18.

As for RRIRMRPPRLPRPRPRPFYNPRP, the “shrunken log2 fold change” value is -0.141. For RRIRIRPPRLPRPRPRPTYFPRP the value was -0.522; for RRIRVRPPRLPRPRPRPHMRPRP, -0.0474. For RRIRFRPPRLPRPRPRPNCDPRP the value was -0.144. The value for RRIRFRPPRLPRPRPRPYTNPRP was -1.17; that for RRIRERPPRLPRPRPRPAFPPRP was 0.295.

Consider RRIRWRPPRLPRPRPRPIEMPRP, for which the “shrunken log2 fold change” value turned out to be 0.467. The value for RRIRLRPPRLPRPRPRPYGQPRP was -0.0159; that for RRIRERPPRLPRPRPRPYECPRP was -0.0425; that for RRIRYRPPRLPRPRPRPQHWPRP was 0.0376.

RRIRGRPPRLPRPRPRPNFWPRP: the “shrunken log2 fold change” value is 0.544.

Take RRIRQRPPRLPRPRPRPRYMPRP: the “shrunken log2 fold change” value was -0.0938. The value for RRIRCRPPRLPRPRPRPPAFPRP was 0.504; that for RRIRWRPPRLPRPRPRPPIIPRP was -0.151; that for RRIRDRPPRLPRPRPRPDDWPRP was 1.08. The value for RRIRQRPPRLPRPRPRPERLPRP was -0.0028; that for RRIRIRPPRLPRPRPRPRLLPRP was -0.003. The value for RRIRGRPPRLPRPRPRPIENPRP was 0.745; that for RRIRKRPPRLPRPRPRPDSGPRP was -0.00213; that for RRIRFRPPRLPRPRPRPMCQPRP was -0.123.

For the sequence RRIRFRPPRLPRPRPRPRHMPRP, the “shrunken log2 fold change” value is -0.124.

Take RRIRERPPRLPRPRPRPPAYPRP: the “shrunken log2 fold change” value was -0.173. For RRIRVRPPRLPRPRPRPMVMPRP the value was -0.0371. In the case of RRIRQRPPRLPRPRPRPPENPRP, the “shrunken log2 fold change” value amounted to 0.0912. As to RRIRPRPPRLPRPRPRPKRAPRP, the “shrunken log2 fold change” value turned out to be 0.395. With RRIRYRPPRLPRPRPRPRNRPRP, the “shrunken log2 fold change” value was -0.0543. For RRIRTRPPRLPRPRPRPLKEPRP, the “shrunken log2 fold change” value was 0.825.

Consider RRIRIRPPRLPRPRPRPKASPRP, for which the “shrunken log2 fold change” value is -0.0616. The value for RRIRCRPPRLPRPRPRPHPKPRP was -0.102; that for RRIRIRPPRLPRPRPRPSTQPRP was -0.0353; that for RRIRKRPPRLPRPRPRPRMVPRP was 0.168.

As for RRIRVRPPRLPRPRPRPCPIPRP, the “shrunken log2 fold change” value is -0.296. With RRIRIRPPRLPRPRPRPHMKPRP, the “shrunken log2 fold change” value was -0.809. With RRIRMRPPRLPRPRPRPVDGPRP, the “shrunken log2 fold change” value stood at 1.08. The value for RRIRKRPPRLPRPRPRPYHQPRP was -0.231; that for RRIRDRPPRLPRPRPRPAWVPRP was 0.103; that for RRIRDRPPRLPRPRPRPRWHPRP was 0.42.

Regarding RRIRARPPRLPRPRPRPCVSPRP, the “shrunken log2 fold change” value was -0.0271. As to RRIRQRPPRLPRPRPRPYMFPRP, the “shrunken log2 fold change” value is -0.392. As for RRIRDRPPRLPRPRPRPIEQPRP, the “shrunken log2 fold change” value was 0.0525. For RRIRFRPPRLPRPRPRPPRTPRP the value was 0.579; for RRIRSRPPRLPRPRPRPTPHPRP, 0.308. For RRIRERPPRLPRPRPRPMCKPRP the value was -0.373. Turning to RRIRSRPPRLPRPRPRPIPYPRP, the “shrunken log2 fold change” value is -0.344. Take RRIRHRPPRLPRPRPRPLWRPRP: the “shrunken log2 fold change” value turned out to be 0.57. The value for RRIRHRPPRLPRPRPRPHGDPRP was -0.01; that for RRIRRRPPRLPRPRPRPGLWPRP was 0.622.

In the case of RRIRDRPPRLPRPRPRPIAKPRP, the “shrunken log2 fold change” value was 0.0483.

Turning to RRIRGRPPRLPRPRPRPQTMPRP, the “shrunken log2 fold change” value was 0.672. The value for RRIRVRPPRLPRPRPRPELAPRP was 0.659; that for RRIRFRPPRLPRPRPRPSWSPRP was -0.557; that for RRIRIRPPRLPRPRPRPDQNPRP was 0.0467. On to RRIRQRPPRLPRPRPRPGPPPRP, for which the “shrunken log2 fold change” value was found to be 0.462. The value for RRIRIRPPRLPRPRPRPTCFPRP was -0.249; that for RRIRRRPPRLPRPRPRPSRIPRP was 0.157; that for RRIRERPPRLPRPRPRPVAEPRP was 0.0949. In the case of RRIRKRPPRLPRPRPRPYINPRP, the “shrunken log2 fold change” value is -0.627. RRIRNRPPRLPRPRPRPSAGPRP: the “shrunken log2 fold change” value was -0.225.

For the sequence RRIRYRPPRLPRPRPRPTCRPRP, the “shrunken log2 fold change” value was -0.157. As for RRIRPRPPRLPRPRPRPIDKPRP, the “shrunken log2 fold change” value was -0.188.

For the sequence RRIRGRPPRLPRPRPRPYYHPRP, the “shrunken log2 fold change” value is -0.204. For the sequence RRIRQRPPRLPRPRPRPGTSPRP, the “shrunken log2 fold change” value is -0.523.
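Further: peptides expressed intracellularly from a pBAD plasmid library in pooled LB shake-flask culture, induced with 0.3% L-arabinose, DNA abundance read by NGS, three biological replicates, DESeq2 with apeglm shrinkage.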
